Reference: paper doi:10.1101/302828 (bioRxiv, 2018)

Target: the molecule itself
Experiment: SEC

B1: recombinant murine chromogranin B (CHGB) (natural protein, mouse, UniProt P16014 21-677, looked up)
chain: APVDNRDHNEEMVTRCIIEVLSNALSKSSVPTITPECRQVLKKSGKEVKGEEKGENQNSKFEVRLLRDPADASGTRWASSREDAGAPVEDSQGQTKVGNEKWTEGGGHSREGVDDQESLRPSNQQASKEAKIYHSEERVGKEREKEEGKIYPMGEHREDAGEEKKHIEDSGEKPNTFSNKRSEASAKKKDESVARADAHSMELEEKTHSREQSSQESGEETRRQEKPQELTDQDQSQEESQEGEEGEEGEEGEEGEEDSASEVTKRRPRHHHGRSGSNKSSYEGHPLSEERRPSPKESKEADVATVRLGEKRSHHLAHYRASEEEPEYGEESRSYRGLQYRGRGSEEDRAPRPRSEESQEREYKRNHPDSELESTANRHGEETEEERSYEGANGRQHRGRGREPGAHSALDTREEKRLLDEGHYPVRESPIDTAKRYPQSKWQEQEKNYLNYGEEGDQGRWWQQEEQLGPEESREEVRFPDRQYEPYPITEKRKRLGALFNPYFDPLQWKNSDFEKRGNPDDSFLEDEGEDRNGVTLTEKNSFPEYNYDWWERRPFSEDVNWGYEKRSFARAPQLDLKRQYDGVAELDQLLHYRKKADEFPDFYDSEEQMGPHQEANDEKARADQRVLTAEEKKELENLAAMDLELQKIAEKFSQRG
stoichiometry N: 2
